Reference: PMC12483538

Target: SenDRT9 reverse transcriptase (SenRT), affinity tag cleaved, in complex with its ncRNA (Salmonella enterica)
Experiment: cryo-EM structure; 2.5 uM tag-cleaved DRT9 RT-ncRNA complex (hexamer) on Quantifoil grids; D3 symmetry imposed, 2.59 A

- stoichiometry N: 6
Substance: SenDRT9 reverse transcriptase (SenRT), affinity tag cleaved, in complex with its ncRNA (enzyme)
